Reference: patent publication US20100162418A1 (Kyowa Kirin, published 2010)

B1: MSPS, purified recombinant human Protein S obtained from FUT8 knockout CHO/DG44 cells (other)
chain: ANSLLEETKQGNLERECIEELCNKEEAREVFENDPETDYFYPKYLVCLRSFQTGLFTAARQSTNAYPDLRSCVNAIPDQCSPLPCNEDGYMSCKDGKASFTCTCKPGWQGEKCEFDINECKDPSNINGGCSQICDNTPGSYHCSCKNGFVMLSNKKDCKDVDECSLKPSICGTAVCKNIPGDFECECPEGYRYNLKSKSCEDIDECSENMCAQLCVNYPGGYTCYCDGKKGFKLAQDQKSCEVVSVCLPLNLDTKYELLYLAEQFAGVVLYLKFRLPEISRFSAEFDFRTYDSEGVILYAESIDHSAWLLIALRGGKIEVQLKNEHTSKITTGGDVINNGLWNMVSVEELEHSISIKIAKEAVMDINKPGPLFKPENGLLETKVYFAGFPRKVESELIKPINPRLDGCIRSWNLMKQGASGIKEIIQEKQNKHCLVTVEKGSYYPGSGIAQFHIDYNNVSSAEGWHVNVTLNIRPSTGTGVMLALVSGNNTVPFAVSLVDSTSEKSQDILLSVENTVIYRIQALSLCSDQQSHLEFRVNRNNLELSTPLKIETISHEDLQRQLAVLDKAMKAKVATYLGGLPDVPFSATPVNAFYNGCMEVNINGVQLDLDEAISKHNDIRAHSCPSVWKKTKNS
modifications: gamma-carboxylated glutamic acid (Gla) in the Gla domain; complex type N-glycoside-linked sugar chains without fucose (fucose not detected)
notes: It differs from KCPS only in glycosylation (no core fucose); also called fucose-free recombinant Protein S

How the values were obtained:
[1] = target: KCPS, purified recombinant human Protein S obtained from CHO/DG44 cells (human) (UniProt P07225); assay: SPR (Biacore T100), KCPS immobilised on CM5, C-17 as analyte
[2] = target: MSPS, purified recombinant human Protein S obtained from FUT8 knockout CHO/DG44 cells (human) (UniProt P07225); assay: SPR (Biacore T100), MSPS immobilised on CM5, C-17 as analyte
[3] = target: human plasma-derived Protein S (manufactured by Calbiochem) (human) (UniProt P07225); assay: SPR (Biacore T100), Protein S immobilised on CM5, C-17 as analyte
[4] = target: T1, human plasma-derived complement C4 binding protein (C4BP; manufactured by BioMed) (human, UniProt P04003 49-597; P20851 18-252); assay: SPR (Biacore T100), MSPS immobilised on CM5, C4BP as analyte
T1 construct: mature; Bought plasma protein; also called Human C4BP
T1 sequence (looked up) 1: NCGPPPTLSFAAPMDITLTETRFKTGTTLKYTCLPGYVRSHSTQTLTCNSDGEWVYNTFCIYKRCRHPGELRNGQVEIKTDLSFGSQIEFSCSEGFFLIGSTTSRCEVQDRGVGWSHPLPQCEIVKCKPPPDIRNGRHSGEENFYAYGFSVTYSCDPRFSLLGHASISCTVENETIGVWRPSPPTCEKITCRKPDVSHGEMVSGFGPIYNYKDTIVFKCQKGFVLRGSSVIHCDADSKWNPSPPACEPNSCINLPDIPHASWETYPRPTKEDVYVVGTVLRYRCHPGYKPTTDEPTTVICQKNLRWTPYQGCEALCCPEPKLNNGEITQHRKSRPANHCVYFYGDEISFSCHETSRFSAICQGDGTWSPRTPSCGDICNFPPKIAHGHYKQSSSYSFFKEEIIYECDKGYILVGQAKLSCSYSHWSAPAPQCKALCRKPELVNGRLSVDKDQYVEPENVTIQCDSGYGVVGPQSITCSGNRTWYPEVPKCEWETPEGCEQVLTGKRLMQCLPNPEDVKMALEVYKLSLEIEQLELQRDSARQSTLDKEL
T1 sequence (looked up) 2: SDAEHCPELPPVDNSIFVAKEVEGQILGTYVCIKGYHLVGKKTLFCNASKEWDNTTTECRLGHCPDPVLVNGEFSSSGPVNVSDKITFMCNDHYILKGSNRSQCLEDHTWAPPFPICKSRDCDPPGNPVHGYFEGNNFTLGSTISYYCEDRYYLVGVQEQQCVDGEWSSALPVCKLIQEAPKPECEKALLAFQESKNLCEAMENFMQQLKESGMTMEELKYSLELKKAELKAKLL
Source text: (§1) Using an amine coupling kit (manufactured by Biacore), human plasma-derived Protein S (manufactured by Calbiochem), and recombinant human Protein S prepared in Example 4, MSPS and KCPS were respectively immobilized on flow cells of a CM5 sensor chip (manufactured by Biacore). An immobilized amount of the ligand protein on the respective flow cells was set to the range of 1500 to 2000 RU. Then, an anti-human Protein S antibody C-17 (manufactured by Santa Cruz) (FIG. 7), or a human plasma-derived complement C4 binding protein (manufactured by BioMed) diluted to given concentrations (50000, 25000, 12500, 6250, 3125, and 1562 ng/mL) using HBS-EP+buffer (manufactured by Biacore), as an analyte, was allowed to run and bind to the ligand-immobilized flow cells at a temperature of 25° C., a flow rate of 5 μL/min, association time of 140 seconds, and dissociation time of 240 seconds. The anti-human Protein S antibody C-17 and the human plasma-derived complement C4 binding protein are known to bind to the sex hormone-binding globulin-like domain (SHBG domain) at the carboxyl terminal of Protein S. The chip was regenerated by a flow of an aqueous glycine solution (pH 1.5) (manufactured by Biacore) for 60 seconds. Dissociation constants calculated by analysis of the obtained data using Biacore T100 evaluation software ver 1.1 (manufactured by Biacore) are given in Table 2 below.

[5] = target: T2, recombinant human RAGE-Fc fusion protein (manufactured by R&D Systems) (human, UniProt Q15109 24-344); assay: SPR (Biacore T100), Protein S immobilised on CM5, RAGE-Fc as analyte
T2 construct: Bought fusion protein; also called recombinant soluble RAGE-human IgG1 Fc chimeric protein; not shown: Fc of human IgG1

[6] = target: T1, human plasma-derived complement C4 …; assay: SPR (Biacore T100), Protein S immobilised on CM5, C4BP as analyte
Source text: as §1

[7] = target: T3, human plasma-derived antithrombin III (manufactured by Calbiochem) (human, UniProt P01008 33-464, four asparagine-linked sugar chains without core alpha1,6-fucose); assay: SPR (Biacore T100), antithrombin III immobilised on CM5 chip, LCA as analyte
T3 construct: mature; Bought plasma protein; also called human plasma antithrombin III
Method: The abscissa represents time (seconds), and the ordinate represents a binding activity of LCA to a glycoprotein on a sensor chip of Biacore T100. From the top, each sensorgram represents a value obtained when LCA was allowed to run at concentrations of 50000, 25000, 12500, 6250, 3125 and 0 ng/mL. The top represents the binding between human plasma Protein S and LCA, and the bottom represents the binding between human plasma antithrombin III and LCA.
Next, in order to analyze the binding mode of fucose added to the sugar chain of the human plasma-derived Protein S, the binding between core α1,6-fucose-specific lectin, Lens culinaris agglutinin (LCA) lectin and Protein S was analyzed by surface plasmon resonance. Using an amine coupling kit (manufactured by Biacore), human plasma-derived Protein S (manufactured by Calbiochem) and human plasma-derived antithrombin III (manufactured by Calbiochem) were respectively immobilized on flow cells of a CM5 sensor chip (manufactured by Biacore). The human plasma-derived antithrombin III is a glycoprotein having four asparagine-linked sugar chains, but these sugar chains are known not to have core α1,6-fucose (WO2005/035563). An immobilized amount of the ligand protein on the respective flow cells was set to the range of 2000 to 3000 resonance units (hereinafter referred to as “RU”). […]

[8] = target: B1; assay: SPR (Biacore T100), Protein S immobilised on C1 chip, CD14 as analyte
Method: Using an amine coupling kit, human plasma-derived Protein S, and recombinant human Protein S prepared in Example 3, MSPS were respectively immobilized at 700 to 800 RU on flow cells of a Series S C1 sensor chip (manufactured by Biacore). Then, the experiment was carried out in the same manner as in Example 5, using a recombinant human CD14 protein (manufactured by R&D systems) diluted to given concentrations (25000, 12500, 6250, 3125, and 1562 ng/mL) using HBS-EP+buffer (manufactured by Biacore), as an analyte.

T3 sequence (P01008 33-464): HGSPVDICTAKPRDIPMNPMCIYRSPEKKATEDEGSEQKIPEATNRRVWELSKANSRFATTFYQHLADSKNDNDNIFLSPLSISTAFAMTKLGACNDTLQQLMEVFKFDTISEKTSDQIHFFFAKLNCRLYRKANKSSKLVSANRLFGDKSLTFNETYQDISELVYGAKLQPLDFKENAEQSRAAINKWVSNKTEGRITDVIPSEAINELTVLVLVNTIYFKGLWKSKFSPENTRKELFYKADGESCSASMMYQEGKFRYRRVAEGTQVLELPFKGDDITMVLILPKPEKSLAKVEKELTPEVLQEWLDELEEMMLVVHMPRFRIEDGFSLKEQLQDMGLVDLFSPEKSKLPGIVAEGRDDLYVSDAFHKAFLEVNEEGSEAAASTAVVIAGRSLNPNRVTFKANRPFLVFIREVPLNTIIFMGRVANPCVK
T2 sequence (Q15109 24-344 limits assumed): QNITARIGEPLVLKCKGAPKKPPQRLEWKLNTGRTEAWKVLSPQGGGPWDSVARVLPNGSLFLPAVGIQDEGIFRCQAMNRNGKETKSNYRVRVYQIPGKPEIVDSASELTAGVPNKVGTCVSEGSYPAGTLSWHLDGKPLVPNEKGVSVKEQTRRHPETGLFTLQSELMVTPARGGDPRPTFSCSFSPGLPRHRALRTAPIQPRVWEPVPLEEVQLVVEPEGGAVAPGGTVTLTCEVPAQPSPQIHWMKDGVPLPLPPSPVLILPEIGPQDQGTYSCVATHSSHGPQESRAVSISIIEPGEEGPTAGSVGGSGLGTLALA

Molecule: anti-human Protein S antibody C-17 (manufactured by Santa Cruz)
- Kd [1]: 220 nM
- Kd [2]: 240 nM
- Kd [3]: 230 nM

Molecule: B1
- Kd [4]: 92 nM
- fold affinity for RAGE against human plasma Protein S [5]: ~7 fold

B2: human plasma-derived Protein S (manufactured by Calbiochem) (other)
chain: ANSLLEETKQGNLERECIEELCNKEEAREVFENDPETDYFYPKYLVCLRSFQTGLFTAARQSTNAYPDLRSCVNAIPDQCSPLPCNEDGYMSCKDGKASFTCTCKPGWQGEKCEFDINECKDPSNINGGCSQICDNTPGSYHCSCKNGFVMLSNKKDCKDVDECSLKPSICGTAVCKNIPGDFECECPEGYRYNLKSKSCEDIDECSENMCAQLCVNYPGGYTCYCDGKKGFKLAQDQKSCEVVSVCLPLNLDTKYELLYLAEQFAGVVLYLKFRLPEISRFSAEFDFRTYDSEGVILYAESIDHSAWLLIALRGGKIEVQLKNEHTSKITTGGDVINNGLWNMVSVEELEHSISIKIAKEAVMDINKPGPLFKPENGLLETKVYFAGFPRKVESELIKPINPRLDGCIRSWNLMKQGASGIKEIIQEKQNKHCLVTVEKGSYYPGSGIAQFHIDYNNVSSAEGWHVNVTLNIRPSTGTGVMLALVSGNNTVPFAVSLVDSTSEKSQDILLSVENTVIYRIQALSLCSDQQSHLEFRVNRNNLELSTPLKIETISHEDLQRQLAVLDKAMKAKVATYLGGLPDVPFSATPVNAFYNGCMEVNINGVQLDLDEAISKHNDIRAHSCPSVWKKTKNS
modifications: gamma-carboxylated glutamic acid (Gla) in the N-terminal Gla domain; complex type N-glycoside-linked sugar chains (Asn458, Asn468, Asn489), partly with core alpha1,6-fucose (Fuc 0.26 per Man 3.00)
notes: Bought protein purified from human plasma; also called native Protein S; Human plasma Protein S
- Kd [6]: 101 nM

B3: Lens culinaris agglutinin (LCA) lectin (manufactured by Vector Laboratories) (other)
chain 1: TETTSFSITKFSPDQKNLIFQGDGYTTKGKLTLTKAVKSTVGRALYSTPIHIWDRDTGNVANFVTSFTFVIDAPSSYNVADEFTFFIAPVDTKPQTGGGYLGVFNSKEYDKTSQTVAVEFDTFYNAAWDPSNKERHIGIDVNSIKSVNTKSWNLQNGERANVVIAFNAATNVLTVTLTYP
chain 2: VTSYTLNEVVPLKDVVPEWVRIGFSATTGAEFAAHEVHSWSFHSELGGTSSS
notes: A lectin; also called lentil lectin
- binding result [7]: no binding (tested: 50000 ng/mL)

B4: recombinant human CD14 protein (manufactured by R&D systems) (receptor, UniProt P08571 20-352, looked up)
chain: TTPEPCELDDEDFRCVCNFSEPQPDWSEAFQCVSAVEVEIHAGGLNLEPFLKRVDADADPRQYADTVKALRVRRLTVGAAQVPAQLLVGALRVLAYSRLKELTLEDLKITGTMPPLPLEATGLALSSLRLRNVSWATGRSWLAELQQWLKPGLKVLSIAQAHSPAFSCEQVRAFPALTSLDLSDNPGLGERGLMAALCPHKFPAIQNLALRNTGMETPTGVCAALAAAGVQPHSLDLSHNSLRATVNPSAPRCMWSSALNSLNLSFAGLEQVPKGLPAKLRVLDLSCNRLNRAPQPDELPEVDNLTLDGNPFLVPGTALPHEGSMNSGVVPAC
notes: Bought
- binding result [8]: binds
